1 protein from publication PMC3154878 can be followed below.

A short description of the data set: cycloheximide chase, Western blot, Hepa1A. To be noted: glycan lost; control: wild type.

B1: ERManI: ERManIO-def (protein)
parent chain: MAACEGRRSGALGSSQSDFLTPPVGGAPWAVATTVVMYPPPPPPPHRDFISVTLSFGENYDNSKSWRRRSCWRKWKQLSRLQRNMILFLLAFLLFCGLLFYINLADHWKALAFRLEEEQKMRPEIAGLKPANPPVLPAPQKADTDPENLPEISSQKTQRHIQRGPPHLQIRPPSQDLKDGTQEEATKRQEAPVDPRPEGDPQRTVISWRGAVIEPEQGTELPSRRAEVPTKPPLPPARTQGTPVHLNYRQKGVIDVFLHAWKGYRKFAWGHDELKPVSRSFSEWFGLGLTLIDALDTMWILGLRKEFEEARKWVSKKLHFEKDVDVNLFESTIRILGGLLSAYHLSGDSLFLRKAEDFGNRLMPAFRTPSKIPYSDVNIGTGVAHPPRWTSDSTVAEVTSIQLEFRELSRLTGDKKFQEAVEKVTQHIHGLSGKKDGLVPMFINTHSGLFTHLGVFTLGARADSYYEYLLKQWIQGGKQETQLLEDYVEAIEGVRTHLLRHSEPSKLTFVGELAHGRFSAKMDHLVCFLPGTLALGVYHGLPASHMELAQELMETCYQMNRQMETGLSPEIVHFNLYPQPGRRDVEVKPADRHNLLRPETVESLFYLYRVTGDRKYQDWGWEILQSFSRFTRVPSGGYSSINNVQDPQKPEPRDKMESFFLGETLKYLFLLFSDDPNLLSLDAYVFNTEAHPLPIWTPA
For the protein B1, the degradation_or_half_life result is given as “no change”.
